{"source": "paper PMC4321713", "target": "Cnidoin fragment (residues 150 to 419) with N-terminal ybbR tag and C-terminal type I dockerin-histidine tag (Hydra magnipapillata | not stated)", "assay": "AFM single molecule force spectroscopy; Cnidoin-dockerin construct attached covalently by its ybbR tag to a coenzyme A glass surface; CBM A2C-Cohesin on the cantilever tip; 25 mM Tris, 72 mM NaCl, pH 7.2, 1 mM CaCl2, 10 mM DTT; pulling speeds 200 nm/s to 6,400 nm/s"}
{"substance": "CBM A2C-Cohesin from Clostridium thermocellum (domain or fragment)", "values": [{"measurement": "rupture force", "value": 100, "unit": "pN"}]}
